Experimental data taken from PMC2567903, “Repetitive N-WASP–Binding Elements of the Enterohemorrhagic Escherichia coli Effector EspFU Synergistically Activate Actin Assembly” (PLoS Pathogens, 2008).

Molecular target: T1, His6-Flag-tagged human N-WASP (human, UniProt O00401 1-505)
T1 construct: also called His-Flag-N-WASP; N-WASP of the recombinant N-WASP/WIP complex
Assay: SEC
Details: partners not purified

T1 sequence (O00401 whole entry): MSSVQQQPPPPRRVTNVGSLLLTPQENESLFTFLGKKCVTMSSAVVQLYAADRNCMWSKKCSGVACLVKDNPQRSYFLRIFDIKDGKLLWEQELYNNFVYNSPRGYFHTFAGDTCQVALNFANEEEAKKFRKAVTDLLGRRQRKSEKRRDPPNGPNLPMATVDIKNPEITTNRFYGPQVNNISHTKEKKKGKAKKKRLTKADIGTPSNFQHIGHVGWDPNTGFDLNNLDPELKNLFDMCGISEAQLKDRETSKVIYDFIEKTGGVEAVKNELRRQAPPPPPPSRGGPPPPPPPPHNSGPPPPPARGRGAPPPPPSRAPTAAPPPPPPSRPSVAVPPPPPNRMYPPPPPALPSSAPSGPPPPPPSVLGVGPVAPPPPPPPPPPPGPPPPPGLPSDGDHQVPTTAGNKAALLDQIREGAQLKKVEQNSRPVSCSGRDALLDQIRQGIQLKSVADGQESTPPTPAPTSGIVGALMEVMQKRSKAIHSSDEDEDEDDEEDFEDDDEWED

B1: His6-Myc-tagged human WIP (natural protein)
chain: not shown
notes: also called His-Myc-WIP
In the case of B1, the “stoichiometry N” value is reported as 1.
